{"source": "paper PMC10156745", "about": "“Tuning charge density of chimeric antigen receptor optimizes tonic signaling and CAR-T cell fitness” (Cell Research, 2023)", "binders": {"B1": {"name": "CD19^M1 antibody (antibody, V domains shown)", "VH": "EVKLKESGPGLVAPSQSLSVTCKASGVSLPDYGVSWIRQPPRKGLEWLGVIWGSETTYYNSALKSRLTIIKDNSKSQVFLKMNSLQTDDTAIYYCAKHYYYGGSYAMDYWGQGTSVTVSS", "VL": "DIKMTQTTSSLSASLGDRVTISCRASQDISKYLNWYQQKPDGTVKLLIYHTSRLHSGVPSRFSGSGSGTDYSLTISNLEQEDIATYFCQQGNTLPYTFGGGTKLEIK", "notes": "as the VH of m1 (FMC63) with uncharged framework residues mutated to lysines; human IgG1 constant region, fused to the variable region in the pCMV plasmid; as the VL of m1 (FMC63) with uncharged framework residues mutated to lysines; light-chain constant region; IgG1 format; Variant of FMC63 with positively charged patches introduced into the framework regions; also called PCP-modified CD19 …"}}, "target": "T1, CD19 on Nalm6 cells (Homo sapiens, UniProt P15391)", "T1 construct": "CD19 (B-lymphocyte antigen CD19) on the surface of Nalm6 cells; this is surmised; source: Nalm6 cells expressing CD19 on the cell surface", "T1 sequence (P15391 20-556)": "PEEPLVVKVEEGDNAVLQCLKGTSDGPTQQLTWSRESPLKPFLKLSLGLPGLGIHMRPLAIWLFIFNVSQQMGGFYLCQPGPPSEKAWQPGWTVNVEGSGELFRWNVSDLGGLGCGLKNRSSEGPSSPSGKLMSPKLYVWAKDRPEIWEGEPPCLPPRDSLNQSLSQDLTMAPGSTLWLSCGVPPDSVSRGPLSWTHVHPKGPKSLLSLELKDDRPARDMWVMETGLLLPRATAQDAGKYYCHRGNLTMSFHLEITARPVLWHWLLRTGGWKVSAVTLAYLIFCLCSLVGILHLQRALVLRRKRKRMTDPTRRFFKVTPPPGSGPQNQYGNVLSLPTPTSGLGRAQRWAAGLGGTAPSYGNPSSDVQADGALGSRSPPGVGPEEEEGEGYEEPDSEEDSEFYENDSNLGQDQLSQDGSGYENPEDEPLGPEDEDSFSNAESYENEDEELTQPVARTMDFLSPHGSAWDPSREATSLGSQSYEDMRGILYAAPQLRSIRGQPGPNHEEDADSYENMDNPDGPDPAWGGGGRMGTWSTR", "assay": "flow cytometry on cells; purified antibodies titrated on Nalm6 cells expressing CD19; cell-based FACS assay", "details": "one partner purified"}
{"binder": "B1", "values": [{"measurement": "EC50", "result": 2.6, "unit": "nM"}]}
